Reference: the domain aggregation screens of Martell et al. (2025)

Assay: soluble fraction after stress (log2 fold change); higher = more stays soluble; pooled small domains, quantitative proteomics
Settings: stress: 50 degC
How it was run: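 Custom libraries of small protein domains were pooled and measured in a high-throughput format, with quantitative proteomics as the read-out. Each library was stressed at 50°C. The value is the log2 fold change in the amount of each protein that stays soluble after stress, used as a measure of aggregation propensity; higher values mean more of the protein stays soluble.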

Sequence	soluble fraction (log2)
HMIPKDKQAWIALTYIYGVGRTTSMEILKKAQVGEEIRMKDLTEEEVTRIRNIIDKEYEVEGDLRRN	-0.292
HMKIRIIKTASNAKAVQIVSYKNNKRIVLQHIGSAHTDETLNDLKILAEEWIKDYNHQLSIF	-2.49
HMYHADLIGLEARSTAGDKLGEVNAVYNFGAGDLIEIKMTDGNLEMLPFTRQYVPTVSIKDGFIIVQM	-0.628
HMFTSVDVAPDLRTAKVFYSVLGRKKSDKEINIAINQKRKAFKKFMGPELHLKNIPDLHFYYD	-0.232
HMKDVVAPMSGRVVRLMVAAGDEVVKRQALVVVEAMKMENVLTAPKEGRIKKVPVREGMTVEVGQTLVSFE	-0.221
HMKELTYSDFRKAYPDIQGNLFGMAERYITALDWTEVAAKVETDEELRKERDIFYLVKTYIRKYVQ	-0.487
HMTAEASELRERIRAAMATLPPAQQRVIELAYFEGLTQREIAALLNEPLGTIKTRMRLGMRKLKDVL	-0.747
HMLDLNEVEFYAIENQLKENLKIDSKRFYELVPLIKGYQEDDIIQVLRWLIDNNRIIRHKDESLTWHS	-1.61
HMDTVSYSTLLRDIDAKEIKQLDLVPGRREVRVQYNDGRRVTVPVFANDNQILRAAESSGTPLTVV	0.183
HMTRILTEDDIVNFLIRQPDTAYIIAKSFNENERKVKELLDLLIKKNKVREEIVNGVVSYAVN	-0.199
HMAAVPQPQRSETIVYIGGRKFYVHTVQAGETLYSIARLYGVSEQTLVANNPTMADVVKADQNVRIPVPA	-0.272
HMISRDPYDAGAIKRHFSASGLFSSKELAHYLGKSVSTAKNVLSDLQQQGIVEMVGQGPATKYRFI	0.343
HMETSIQFIRLEIGHNHPWVNQTLKEIPTIPGTLIAAVLRGDEDQAIIPKGDTLLKEGDSVIIGAKEYQD	-0.919
HMQQYLDAYDKALAFGIAMNKLPSYENLTLDDKEDVDKLKEIYDGMSNYEKTFVAKDFTDKLDRYVKRIE	-0.0367
HMHSEISGGSKDPFRFMPHLGVEDIHAETDRLSGSGVEFIREPDQESWGGWVATFKDPDGNILQLLQL	0.25
HMDKATMRWEQIEKFLETHPYIMNADVRALFNVSAATANRILATLTTEGKLVKYREGGHWAYKY	-0.544
HMLPGKEIPLPEFLREAFARNEPALENFQNLAPSYRRQYILWITSAKTPETVQKRISESIGLLKENRKLGM	0.0472
HMGQGSAFVYYEVLPKQTEYSLTRKLGLGYADLLSLNPQLARGLQAGMVLKIPRDKAGNLEVKNDLILE	-0.271
HMQYDESSQLGERFLNQALNALKADPDKVGDAQWEKLLKENSAKSRQEVLADIGLGKQLAIVIARELLS	-0.115

Sequence	soluble fraction (log2)
HMYSDERLQTFMELLPFFVEELSNKHVTRYNVWQNYREAYPNGYGRSQFFFHLGQNLEAKKK	-1.17
HMIFELDSDRASAGNTIGKLVSKWNNTEVASVQFVSGDDTSNKDNASIYLNTRSGGSGNLVRLRITK	0.168
HMEKEYMKNVVGMEYRQARVLLGDMGLELAFQPVYETSDKYPTDVVVSTEPAADQPLTKGQTVILHIST	0.288
HMTSESWAEKSRSLAAAGLIVMGRDAQLKIEGLTNLDPLIEAATASSTRLLTGQTIDELLTIVP	-0.265
HMGIEIKLLMSFMTDSGRKVSLFVTDPREDVTETEIKQVMDLIIEKNIFAPNGEDIVSAKEAKIVQT	-1.25
HMEVAAAENYRSKLSSFAKDTISVWQTELLLGTISDDDKASLTEWMAYIKALQVVDTSDPESITWPTEPT	-1.45
HMSVIETLLSDREREVLTHLVNGYDAKRIAEITGISTLTVRKHIANIYTKLHVNSKAQVISMAHKNKWF	-0.657
HMSDHKNANFTKVVKVAQELLQDEDDKAGITPTLIEEKISAVLAMNRRWAEGLDRAAVADELIRRFSIW	-0.42
HMSGPVITEERNIANALISGLANMKETPTREQVERKAQQIAELFGYTGDLRNIITEAMISVDT	0.059
HMSALTELPVKTVNGKKYHYYVVKQHETVYALSKRFGITPEQLIKYNPSAEDGLQIDQELLFPATEI	0.161
HMKKNNTTPIPKTLNYVNIKGLSNEAVERLNKHKPSTLGQASRLEGITPAATSLISIAIKKNQLLEKAES	0.251
HMFLDKDTLNQLYRFGIALTGNEQDSQDVLHTAIERFLRNKPQQINQQAAYIRTIMRNYWYDELRKLKTQ	-1.61
HMPGTEAQDGEVLLDALRRIHPDSSTGTLRRMLTQGRVQVDGTTVHAAKAELTSGQHVEVVAR	0.0101
HMDRNEFVSTLRAALTGAVSPAIVEDNVRYYQNYISQEIASGKSEKEVLDGLGDPRLIARTIIDT	0.0674
HMDPGPVLISAQVLDDLEAIRRDGSSNMLDWPAVARLAEVMGMDRTAAWVRTHHREYSAGIFRGFASD	-1.68
HMDIFGREAEVEQILQEVRFGDDPHYRLSIGILPVTGHAGAGKTALVRFIFHHEVARAEFTVRMWVHV	0.106
HMVAGHLQTKKGYYYIVLNMRTDTGARKTKWIATGIPEGGKKNLKQAEELLAKTRYTYEDMVI	-0.792
HMDTNEPFAQLQLRFTDPIQYDYEVIRPVVLFSQSVTDRSDETEMPRTTVREKARQFVTEGMLGLVDK	-0.00748
HMAALTADEAKQIALKHAGVAESDVQRLKVEQDRDDGRLLYEVEWDVGRTEYSYEIDANTGDILNYEKDV	0.254
